From paper PMC4570711

These substances were tested against human TrkA receptor (human) (UniProt P04629).
Sequence of UniProt P04629 (P04629 33-796): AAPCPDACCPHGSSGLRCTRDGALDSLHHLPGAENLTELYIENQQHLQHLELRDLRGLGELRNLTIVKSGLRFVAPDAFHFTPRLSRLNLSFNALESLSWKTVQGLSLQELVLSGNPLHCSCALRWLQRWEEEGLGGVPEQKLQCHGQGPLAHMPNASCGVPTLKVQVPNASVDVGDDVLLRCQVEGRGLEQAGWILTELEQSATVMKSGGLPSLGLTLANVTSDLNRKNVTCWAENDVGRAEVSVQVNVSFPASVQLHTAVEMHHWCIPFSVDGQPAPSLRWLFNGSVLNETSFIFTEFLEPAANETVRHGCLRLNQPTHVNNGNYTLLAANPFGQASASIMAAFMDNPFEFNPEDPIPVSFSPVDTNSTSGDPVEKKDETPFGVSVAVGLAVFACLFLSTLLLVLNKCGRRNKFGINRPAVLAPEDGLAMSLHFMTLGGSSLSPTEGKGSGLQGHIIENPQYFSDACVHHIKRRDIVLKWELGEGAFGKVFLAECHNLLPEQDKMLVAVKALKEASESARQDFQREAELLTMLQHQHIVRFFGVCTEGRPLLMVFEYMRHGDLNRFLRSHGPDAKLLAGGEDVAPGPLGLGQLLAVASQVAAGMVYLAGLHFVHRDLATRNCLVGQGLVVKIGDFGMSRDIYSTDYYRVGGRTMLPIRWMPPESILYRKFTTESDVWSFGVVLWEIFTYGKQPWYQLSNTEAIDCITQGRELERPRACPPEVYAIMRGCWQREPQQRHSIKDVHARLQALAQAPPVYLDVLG

| TF1 cell proliferation, C50 (concentration of hNGF giving half of the maximum effect; 0.1–200 ng/ml) | Substance |
| --- | --- |
| 10.9 ng/mL | human Nerve Growth Factor R100E mutant ("painless" hNGF) (from UniProt P01138 122-241) (ligand) |
| 8.1 ng/mL | human Nerve Growth Factor P61S R100E double mutant (ligand) |
| 4.3 ng/mL | human Nerve Growth Factor P61S mutant (ligand) |
